According to paper PMC10888979 (bioRxiv, 2024):

Molecular target: Mat1 (230-309) (human, UniProt P51948)
Assay: crystal structure

Sequence of Mat1 (230-309) (P51948 230-309): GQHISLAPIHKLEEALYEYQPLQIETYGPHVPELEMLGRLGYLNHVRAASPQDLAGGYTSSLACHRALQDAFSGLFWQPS

binding result: binds
B1: VHH_(RD7-04), construct for co-crystallization (VHH)
VHH: QVQLVESGGGLVQPGGSLRLSCVASGFTFKNFYMGWVRQAPDKGLEWVATINSGGEIQSYADSVKGRFTISRDNAKNTLYLQMNNLRPEDTAVYYCSKQSSTPAKGQGTQVTVSS
